Laboratory results from PMC11931990, “Interaction between bacterial phytochromes Agp1 and Agp2 of Agrobacterium fabrum by fluorescence resonance energy transfer and docking studies” (Febs Letters, 2025).

Experiments:
Agp2-PCM = target: T1, Agp2-PCM (Agrobacterium fabrum, UniProt A9CI81); test: UV/vis absorbance after chromophore assembly and desalting; format: binding; details: covalent (Cys13); threefold molar excess BV, 2 h, RT, pH 7.8, 1 mM TCEP; Atto-495 labelled afterwards
T1 construct: gene Atu2165; photosensory chromophore module (PAS, GAF, PHY)
T1 sequence (A9CI81 1-501): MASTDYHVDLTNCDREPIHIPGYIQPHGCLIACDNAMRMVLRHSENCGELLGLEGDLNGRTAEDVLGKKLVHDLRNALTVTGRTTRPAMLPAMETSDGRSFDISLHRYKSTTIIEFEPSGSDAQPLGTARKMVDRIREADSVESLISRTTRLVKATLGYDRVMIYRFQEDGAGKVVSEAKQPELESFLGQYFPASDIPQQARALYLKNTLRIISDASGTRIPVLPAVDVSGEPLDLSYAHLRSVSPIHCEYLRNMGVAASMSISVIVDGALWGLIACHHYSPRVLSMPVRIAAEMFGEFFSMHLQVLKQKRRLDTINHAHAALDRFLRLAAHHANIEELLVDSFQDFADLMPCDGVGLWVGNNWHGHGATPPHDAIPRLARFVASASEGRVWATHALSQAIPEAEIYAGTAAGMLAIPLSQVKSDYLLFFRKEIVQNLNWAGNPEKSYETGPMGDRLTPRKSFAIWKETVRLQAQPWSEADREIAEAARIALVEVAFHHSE

Agp2 = target: T2, Agp2 (Agrobacterium fabrum, UniProt A9CI81); test: as above; format: binding; details: covalent (Cys13); threefold molar excess BV, 2 h, RT, pH 7.8, 1 mM TCEP; Atto-495 labelled afterwards
T2 construct: gene Atu2165; full length (PAS-GAF-PHY-histidine kinase-response regulator), C-terminal His6, E. coli DH5-alpha, pAg2 (pET21b-based), purified apoprotein, homodimer
T2 sequence (A9CI81 1-850): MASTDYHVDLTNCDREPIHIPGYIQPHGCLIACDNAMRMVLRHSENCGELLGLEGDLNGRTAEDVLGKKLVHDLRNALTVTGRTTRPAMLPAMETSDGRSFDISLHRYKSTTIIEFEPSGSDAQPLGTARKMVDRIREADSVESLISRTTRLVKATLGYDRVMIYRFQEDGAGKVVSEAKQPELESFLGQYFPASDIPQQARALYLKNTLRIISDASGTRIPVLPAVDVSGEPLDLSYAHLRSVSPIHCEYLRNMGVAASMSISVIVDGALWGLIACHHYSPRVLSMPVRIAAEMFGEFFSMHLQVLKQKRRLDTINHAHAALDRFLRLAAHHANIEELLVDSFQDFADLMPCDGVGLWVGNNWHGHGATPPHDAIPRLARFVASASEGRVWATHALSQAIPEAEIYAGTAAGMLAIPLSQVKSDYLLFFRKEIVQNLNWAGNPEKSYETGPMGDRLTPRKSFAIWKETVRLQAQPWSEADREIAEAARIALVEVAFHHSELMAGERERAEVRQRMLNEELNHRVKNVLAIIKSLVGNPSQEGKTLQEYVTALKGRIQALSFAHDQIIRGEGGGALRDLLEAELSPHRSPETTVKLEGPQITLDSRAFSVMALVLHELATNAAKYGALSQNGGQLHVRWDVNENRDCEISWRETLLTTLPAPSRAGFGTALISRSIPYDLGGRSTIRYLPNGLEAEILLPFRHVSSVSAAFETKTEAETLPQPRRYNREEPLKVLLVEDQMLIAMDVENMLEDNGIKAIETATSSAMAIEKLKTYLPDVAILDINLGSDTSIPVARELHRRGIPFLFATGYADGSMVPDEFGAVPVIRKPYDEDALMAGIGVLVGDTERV
Text: UV/vis absorbance after chromophore assembly and desalting on Agp2

[1] = target: Agp2, full length wild-type A. fabrum phytochrome, labeled with Atto-495 (Agrobacterium fabrum); test: FRET or BRET
[2] = target: Agp2-PCM, photosensory chromophore module of Agp2, labeled with Atto-495 (Agrobacterium fabrum); test: FRET or BRET

Compound | E FRET (FRET transfer efficiency) [1] | also measured
C=CC1=C(C)/C(=C/C2=NC(=C\c3[nH]c(/C=C4\NC(=O)C(C)=C4C=C)c(C)c3CCC(=O)O)/C(CCC(=O)O)=C2C)NC1=O [Biliverdin] | – | Agp2 PCM (Agp2-PCM): 0.98 ± 0.01 mol/mol; Agp2 (Agp2): 0.70 ± 0.04 mol/mol
Agp1 A362C, full-length A. fabrum phytochrome Agp1 mutant labeled with Atto-565 (natural protein) | 0.1 | –
Agp1 K517C, full-length A. fabrum phytochrome Agp1 mutant labeled with Atto-565 (natural protein) | 0.15 | E FRET (FRET transfer efficiency) [2]: 0.14
Agp1 K554C, full-length A. fabrum phytochrome Agp1 mutant labeled with Atto-565 (natural protein) | 0.28 | –
Agp1 R535C, full-length A. fabrum phytochrome Agp1 mutant labeled with Atto-565 (natural protein) | 0.21 | –
Agp1 R603C, full-length A. fabrum phytochrome Agp1 mutant labeled with Atto-565 (natural protein) | 0.2 | –
Agp1 S122C, full-length A. fabrum phytochrome Agp1 mutant labeled with Atto-565 (natural protein) | 0.09 | –
